Reference: publication PMC8391104, “Molecular mechanism of Mad1 kinetochore targeting by phosphorylated Bub1” (EMBO Reports, 2021)
Substitutions are numbered along the chain they refer to. Names may count otherwise.

B1: S459A: Bub1 S459A mutation (protein, UniProt O43683 1-1085, looked up, variant S459A)
Mitotic checkpoint …: MDTPENVLQMLEAHMQSYKGNDPLGEWERYIQWVEENFPENKEYLITLLEHLMKEFLDKKKYHNDPRFISYCLKFAEYNSDLHQFFEFLYNHGIGTLSSPLYIAWAGHLEAQGELQHASAVLQRGIQNQAEPREFLQQQYRLFQTRLTETHLPAQARTSEPLHNVQVLNQMITSKSNPGNNMACISKNQGSELSGVISSACDKESNMERRVITISKSEYSVHSSLASKVDVEQVVMYCKEKLIRGESEFSFEELRAQKYNQRRKHEQWVNEDRHYMKRKEANAFEEQLLKQKMDELHKKLHQVVETSHEDLPASQERSEVNPARMGPSVGSQQELRAPCLPVTYQQTPVNMEKNPREAPPVVPPLANAISAALVSPATSQSIAPPVPLKAQTVTDSMFAVASKDAGCVNKSTHEFKPQSGAEIKEGCETHKVANTSSFHTTPNTSLGMVQATPSKVQPAPTVHTKEALGFIMNMFQAPTLPDISDDKDEWQSLDQNEDAFEAQFQKNVRSSGAWGVNKIISSLSSAFHVFEDGNKENYGLPQPKNKPTGARTFGERSVSRLPSKPKEEVPHAEEFLDDSTVWGIRCNKTLAPSPKSPGDFTSAAQLASTPFHKLPVESVHILEDKENVVAKQCTQATLDSCEENMVVPSRDGKFSPIQEKSPKQALSSHMYSASLLRLSQPAAGGVLTCEAELGVEACRLTDTDAAIAEDPPDAIAGLQAEWMQMSSLGTVDAPNFIVGNPWDDKLIFKLLSGLSKPVSSYPNTFEWQCKLPAIKPKTEFQLGSKLVYVHHLLGEGAFAQVYEATQGDLNDAKNKQKFVLKVQKPANPWEFYIGTQLMERLKPSMQHMFMKFYSAHLFQNGSVLVGELYSYGTLLNAINLYKNTPEKVMPQGLVISFAMRMLYMIEQVHDCEIIHGDIKPDNFILGNGFLEQDDEDDLSAGLALIDLGQSIDMKLFPKGTIFTAKCETSGFQCVEMLSNKPWNYQIDYFGVAATVYCMLFGTYMKVKNEGGECKPEGLFRRLPHLDMWNEFFHVMLNIPDCHHLPSLDLLRQKLKKVFQQHYTNKIRALRNRLIVLLLECKRSRK
B2: F629A: Mad1 F629A mutant (protein, UniProt Q9Y6D9 1-718, looked up, variant F629A)
Mitotic spindle assembly …: MEDLGENTMVLSTLRSLNNFISQRVEGGSGLDISTSAPGSLQMQYQQSMQLEERAEQIRSKSHLIQVEREKMQMELSHKRARVELERAASTSARNYEREVDRNQELLTRIRQLQEREAGAEEKMQEQLERNRQCQQNLDAASKRLREKEDSLAQAGETINALKGRISELQWSVMDQEMRVKRLESEKQELQEQLDLQHKKCQEANQKIQELQASQEARADHEQQIKDLEQKLSLQEQDAAIVKNMKSELVRLPRLERELKQLREESAHLREMRETNGLLQEELEGLQRKLGRQEKMQETLVGLELENERLLAKLQSWERLDQTMGLSIRTPEDLSRFVVELQQRELALKDKNSAVTSSARGLEKARQQLQEELRQVSGQLLEERKKRETHEALARRLQKRVLLLTKERDGMRAILGSYDSELTPAEYSPQLTRRMREAEDMVQKVHSHSAEMEAQLSQALEELGGQKQRADMLEMELKMLKSQSSSAEQSFLFSREEADTLRLKVEELEGERSRLEEEKRMLEAQLERRALQGDYDQSRTKVLHMSLNPTSVARQRLREDHSQLQAECERLRGLLRAMERGGTVPADLEAAAASLPSSKEVAELKKQVESAELKNQRLKEVFQTKIQEARKACYTLTGYQIDITTENQYRLTSLYAEHPGDCLIFKATSPSGSKMQLLETEFSHTVGELIEVHLRRQDSIPAFLSSLTLELFSRQTVA
B3: R630A: Mad1 R630A mutant (protein, UniProt Q9Y6D9 1-718, looked up, variant R630A)
Mitotic spindle assembly …: B2 Mitotic spindle assembly … with A629F, R630A

Assays:
[1] = test system: kinetochore; conditions: cited from earlier work; for kinetochore targeting of F629A / R630A mutants, in words: ref Ji et al, 2017b
Text: Formation of the Bub1‐Mad1 complex at kinetochores is dependent on phosphorylation of Bub1, a targeting mechanism conserved from yeast to humans (Heinrich et al, [2014]; London & Biggins, [2014a]; Silió et al, [2015]). In S. cerevisiae, phosphorylation of Bub1 at Thr453 and Thr455 by Mps1 promotes an interaction with Mad1^CTD, with pThr455 alone being sufficient for this interaction (London & Biggins, [2014a]; Ji et al, [2017b]). […] Phe629 is a buried hydrophobic residue which contacts Phe629 of the opposite subunit and therefore contributes to the hydrophobic dimerization interface of Mad1^CTD. Phe629 also contributes to the hydrophobic interface of the Bub1^CD1‐Mad1^CTD complex by stacking with Bub1 Phe475 (Fig 3B). […] However, we suspect this could be linked to disruption of the Mad1 conformation sinc ...

[2] = Aggregation of Mad1^CTD mutants; format: physicochemical; conditions: purified Mad1^CTD mutant
Text: The coding region of Mad1^597–719 was cloned by USER® (NEB) into a modified pRSFDuet‐1 vector (71341‐3, Sigma‐Aldrich) with an N‐terminal double Strep His6‐tag, followed by a tobacco etch virus (TEV) protease cleavage site (Demple & Linn, [1982]; Bitinaite et al, [1992]). Mad1 mutants were generated using the QuikChange™ Lightning Site‐Directed Mutagenesis Kit (Agilent), developed by Stratagene Inc. (La Jolla, CA) (Nøhr & Kristiansen, [2003]). Mad1 constructs were transformed into Rosetta™ 2 (DE3) Singles™ Competent Cells (71400, Novagen) for expression. Expression was induced with 0.5 mM IPTG and grown overnight at 18°C. Cells were lysed in 25 mM HEPES pH 8.1, 250 mM NaCl, 2 mM DTT, 5% glycerol, 2 mM EDTA supplemented with lysozyme, and Complete™ EDTA‐free protease inhibitors (Roche). Proteins were purified over a Strep‐Tactin Superflow Plus column (QIAGEN) and cleaved with TEV protease overnight at 4°C. […]
Size exclusion chromatography coupled with multi‐angle static light scattering (SEC‐MALS) was performed using an Agilent 1200 series LC system with an online Dawn Helios ii system (Wyatt) equipped with a QELS+ module (Wyatt) and an Optilab rEX differential refractive index detector (Wyatt). […] The molecular masses were analysed with ASTRA 7.3.0.11 (Wyatt). […]

Molecule | Mad1 kinetochore recruitment by Bub1 S459A, in words ([1]; ref Zhang et al, 2017) | kinetochore targeting of F629A / R630A mutants, in words [1] | aggregation, in words [2]
B1 | inactivates Bub1‐mediated Mad1 kinetochore recruitment |  | 
B2 |  | defective in kinetochore targeting | had a propensity to aggregate
B3 |  | defective in kinetochore targeting | 
